Assay results from the RNAGym collection of RNA variant scans (doi:10.1073/pnas.2313332121).
Variants at the floor of the assay were thinned out.

B1: TPR 5TU (parent)
chain: GGAUCUUCUCGAUCUAACAAAAAAGACAAAUCUGCCACAAAGCUUGAGAGCAUCUUCGGAUGCAGAGGCGGCAGCCUUCGGUGGCGCGAUAGCGCCAACGUUCUCAACUAUGACACGCAAAACGCGUGCUCCGUUGAAUGGAGUUUAUCAUG

Variants of: B1
Experiment: polymerase ribozyme fitness, log enrichment relative to wild type (log ratio); higher = more active; in vitro selection for triplet polymerase activity
Summary of the method: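 Both subunits of a heterodimeric triplet polymerase ribozyme were given their own mutant library, built by PCR and transcribed. Each library was annealed with a biotinylated primer, the partner subunit and triplets, incubated frozen at −7 °C, and its extended constructs gel-excised, captured on streptavidin beads and amplified by RT-PCR, all in one round done in triplicate. Fitness is the logarithm of genotype enrichment relative to wild-type enrichment, with replicates averaged by inverse-variance weighting. That logarithm is base 2, and Illumina-sequenced genotypes needed ≥10 input reads and ≥1 read per output.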

Variant	polymerase ribozyme fitness (log ratio)
C85G A98G U144G	-0.337
C54G A91G	-4.01
A19G G126C	0.693
U31G C35U A60U A115G	-3.22
A12C G59A G84A C118U A121G A122C G126U	-3.86
C36U A40G C43G U55A A91C G126A G141U	≤ -4.2
C114G	-2.54
A20G A21C C93A A97G	-3.83
G34A G117U A137C A142U	≤ -4.2
U44A C87A U90C C93G C105G A122G	≤ -4.2
G86C C131U	-2.55
U53C G74A C76G C96U A110U	≤ -4.2
C5G G48C G62C A97U G141U	≤ -4.2
A37U U77G C96A A106G	≤ -4.2
A40G C149A	-3.98
C57G U146A	-0.273
C14G A30U U61A G92A C99A	≤ -4.2
U6C C87A	≤ -4.2
A47C C85U	-1.58
C32U G50A A52G G58A C87G C118G	≤ -4.2
G42C C72U	≤ -4.2

Variant	polymerase ribozyme fitness (log ratio)
C10U A47G G94U A147G	≤ -4.2
G58U U61A U90A A142G	≤ -4.2
U55G A106C	-0.416
A23C A29U C38U C54A G84A A98U A106G A137U	≤ -4.2
A60G C93A A97C A110U C123U U130G G133A	≤ -4.2
C69U G84A A106C	-2.41
C75G A97U	≤ -4.2
U7C A16U A49G G92C	≤ -4.2
C32G G83A C85G C108G G124A U135G	≤ -4.2
C125U G126A	-3.14
C54G C87G C103A C129G C132U	≤ -4.2
G25A U31A U56A G58A A60C C95U U135A	-1.75
A19G A39U U55G A121C	-2.95
C85G C95A	-1.68
A39C C57A G86A U130C	-2.93
G59C G86U C95U	-2.13
A20C U61A C63U C85U	-1.55
G50A C76A G92A U101G G128U U130G	≤ -4.2
A47U G48C	-1.39
A3C G58C C95G C129A A142C	≤ -4.2
G58A A89U C96A A115G	-1.15

Variant	polymerase ribozyme fitness (log ratio)
G11U A47G U53A	-2.54
C57G G58U A137G G143A	-2.87
A20U A23C A47C U55G G86U A91G	≤ -4.2
A20C G65U U90G C93U C129A	≤ -4.2
C35A G126A	-3.51
C32U C87U C103G	≤ -4.2
A23U G25U A29U C43U G58U G86A A107G	≤ -4.2
A28U G83C G92U C96U	≤ -4.2
C69G U101G G133U	-3.95
C76U C99A	-1.37
A17U C36G U61A C76G C103U A119U G141C	≤ -4.2
U15A A16G G58U C69G C85U A89U C96U C108U	≤ -4.2
A115U U146G	-2.23
C14G A91U G143U	-3.88
A23U A26U C51A A66U C85U U148C	≤ -4.2
C43G G83C	≤ -4.2
G68A G88A C96G C118A G126A	-4.16
A115U U134C	-1.19
A47U C96G C116U	-0.28
G50C C76U C85U C116G	-2.09
U56A G58A C76U C123U C125G G143A	0.457

Variant	polymerase ribozyme fitness (log ratio)
A28U A41C G88C	≤ -4.2
A12G C96A U134C A138G G141C	-3.97
U6A A12U	0.206
A40C G92A U109C G141U	≤ -4.2
A37G A60C	-3.15
U15C A16C C85U C118A	-2.79
C85U C129U	-0.359
U9A C96U A110C	≤ -4.2
G25U G50C U77A C87U A107G	≤ -4.2
U82C G86A	-2.06
A12G C38A C96G	-0.0836
G140U U146C	-3.33
G84A G88A	≤ -4.2
G92C C103A	-3.4
A20C A24C C51A G74C G94U A121U U135G U148C	≤ -4.2
U90C C95A U102A C132A	≤ -4.2
G92A A106C U111G G136A	≤ -4.2
G94A U101G	-0.0834
U6A C8A A12G C43U A64C G86C C87A	≤ -4.2
C8U C43G A47U A64G G70A C79G C99G U135C G136C U145A	≤ -4.2
